This is an account of results in article doi:10.1101/2020.03.20.000240.

Common to all, as to assay: SPR
Background: Surface plasmon resonance follows binding to a sensor surface in real time, without labels.

The target in assay [1] is UmuDAb C-terminal domain (CTD) (Acinetobacter baumannii ATCC 17978).
The target in assay [2] is full length UmuDAb transcription repressor from Acinetobacter baumannii (Acinetobacter baumannii ATCC 17978).
In assay [3] the target is full-length UmuD, component of DNA polymerase V, from Acinetobacter baumannii (Acinetobacter baumannii ATCC 17978).

In general, Kd refers to the equilibrium constant for the complex coming apart. Regarding “DdrR protein from Acinetobacter baumannii (natural protein)”, the Kd in assay [1] was found to be 106 nM; in assay [2] it was 83.3 nM; in assay [3] it was 294 nM.
